{"source": "paper PMC8423587", "about": "(Nature chemical biology, 2019)", "binders": {"B1": {"name": "nanobody 72 (VHH)", "VHH": "QVQLQESGGGLVQAGGSLRLSCAASGRIFSTNVMGWFRQAPGKEREFVATVGRIGGSTVYADFVKGRFTLSRDNAKNMVYLQMNSLKPEDTAVYYCGARIGGSDRLAPENYGYWGQGTQVTVSS"}}, "target": "T1, ELIC 7′C pore mutant (L238C in the cysteine-free background C300S/C313S) (Erwinia (as in the name Erwinia …))", "T1 chain": "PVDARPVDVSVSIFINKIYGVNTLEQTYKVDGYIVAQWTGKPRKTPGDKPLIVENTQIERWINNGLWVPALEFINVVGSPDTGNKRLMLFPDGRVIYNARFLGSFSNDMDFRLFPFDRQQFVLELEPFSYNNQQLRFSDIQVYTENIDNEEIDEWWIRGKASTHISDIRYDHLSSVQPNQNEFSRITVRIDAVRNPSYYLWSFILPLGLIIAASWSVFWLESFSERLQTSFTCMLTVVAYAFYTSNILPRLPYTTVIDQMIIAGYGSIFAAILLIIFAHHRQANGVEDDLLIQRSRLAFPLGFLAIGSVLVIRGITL", "test": "crystal structure"}
{"binder": "B1", "values": [{"measurement": "stoichiometry N", "value": 5, "unit": "Nb72 per ELIC pentamer"}]}
